Test results taken from the supplement of paper PMC9112550, “Optimization of the antimicrobial peptide Bac7 by deep mutational scanning” (BMC Biology, 2022).

Test system: Escherichia coli TOP10
Assay: shrunken log2 fold change of peptide-encoding DNA abundance (4.5 h post-induction vs induction); higher = less antimicrobial activity (less host growth inhibition)
Settings: time post-induction: 4.5 h; library: site-saturation at positions 5, 18, 19, 20
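Also: peptides expressed intracellularly from a pBAD plasmid library in pooled LB shake-flask culture, induced with 0.3% L-arabinose, DNA abundance read by NGS, three biological replicates, DESeq2 with apeglm shrinkage.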

Sequence | shrunken log2 fold change
RRIRFRPPRLPRPRPRPCYMPRP | 1.54
RRIRRRPPRLPRPRPRPSVFPRP | 0.141
RRIRHRPPRLPRPRPRPSSHPRP | -1.3
RRIRLRPPRLPRPRPRPCRHPRP | -0.601
RRIRLRPPRLPRPRPRPEQKPRP | 0.0115
RRIRVRPPRLPRPRPRPMEWPRP | -0.125
RRIRNRPPRLPRPRPRPSWHPRP | -0.535
RRIRWRPPRLPRPRPRPWNPPRP | -0.219
RRIRRRPPRLPRPRPRPKPTPRP | 0.426
RRIRQRPPRLPRPRPRPFFMPRP | -0.129
RRIRHRPPRLPRPRPRPSWEPRP | -0.0671
RRIRRRPPRLPRPRPRPKDCPRP | 0.132
RRIRGRPPRLPRPRPRPDCPPRP | 0.22
RRIRFRPPRLPRPRPRPNQFPRP | -0.0599
RRIRPRPPRLPRPRPRPKDQPRP | 0.111
RRIRNRPPRLPRPRPRPWIKPRP | -0.739
RRIRDRPPRLPRPRPRPDGWPRP | 0.965
RRIRPRPPRLPRPRPRPSHIPRP | -0.505
RRIRHRPPRLPRPRPRPNKHPRP | -0.627
RRIRDRPPRLPRPRPRPWNSPRP | -0.237
RRIRQRPPRLPRPRPRPCCVPRP | 0.115
RRIRMRPPRLPRPRPRPDHHPRP | -0.111

Sequence | shrunken log2 fold change
RRIRMRPPRLPRPRPRPHYHPRP | -0.493
RRIRPRPPRLPRPRPRPHSEPRP | -0.0259
RRIRNRPPRLPRPRPRPERPPRP | 0.499
RRIRWRPPRLPRPRPRPSTIPRP | -0.374
RRIRSRPPRLPRPRPRPIQDPRP | 0.00805
RRIRERPPRLPRPRPRPIRLPRP | -0.0614
RRIRMRPPRLPRPRPRPNPFPRP | 0.211
RRIRHRPPRLPRPRPRPNMFPRP | -0.464
RRIRQRPPRLPRPRPRPCRTPRP | 0.0557
RRIRMRPPRLPRPRPRPQNCPRP | 0.0712
RRIRPRPPRLPRPRPRPLNEPRP | -0.348
RRIRNRPPRLPRPRPRPTRVPRP | 0.376
RRIRTRPPRLPRPRPRPHSKPRP | -0.2
RRIRHRPPRLPRPRPRPDLPPRP | 0.107
RRIRPRPPRLPRPRPRPRNEPRP | 0.139
RRIRMRPPRLPRPRPRPFQLPRP | 0.118
RRIRIRPPRLPRPRPRPWMFPRP | -0.261
RRIRDRPPRLPRPRPRPGKLPRP | 0.0495
RRIRKRPPRLPRPRPRPYWEPRP | 0.0616
RRIRFRPPRLPRPRPRPRPMPRP | 0.856
RRIRCRPPRLPRPRPRPCEHPRP | -0.328
RRIRYRPPRLPRPRPRPAWWPRP | 0.365

Sequence | shrunken log2 fold change
RRIRARPPRLPRPRPRPNDFPRP | -0.214
RRIRQRPPRLPRPRPRPDPVPRP | 0.0565
RRIRPRPPRLPRPRPRPLSRPRP | 0.0978
RRIRTRPPRLPRPRPRPHYHPRP | -0.853
RRIRDRPPRLPRPRPRPLLIPRP | 0.338
RRIRMRPPRLPRPRPRPSAKPRP | 0.0449
RRIRPRPPRLPRPRPRPDDPPRP | -0.0693
RRIRFRPPRLPRPRPRPLPKPRP | 0.55
RRIRCRPPRLPRPRPRPNKQPRP | -0.201
RRIRWRPPRLPRPRPRPDSYPRP | 0.00709
RRIRIRPPRLPRPRPRPGTRPRP | 0.0641
RRIRWRPPRLPRPRPRPGFDPRP | 0.517
RRIRMRPPRLPRPRPRPMAVPRP | -0.00104
RRIRMRPPRLPRPRPRPNPIPRP | 0.188
RRIRARPPRLPRPRPRPAIQPRP | 0.228
RRIRGRPPRLPRPRPRPAEWPRP | 0.542
RRIRCRPPRLPRPRPRPENKPRP | -0.415
RRIRIRPPRLPRPRPRPSKQPRP | -0.18
RRIRPRPPRLPRPRPRPHCHPRP | -0.0394
RRIRDRPPRLPRPRPRPIFMPRP | -0.285
RRIRSRPPRLPRPRPRPDRYPRP | -0.172
RRIRERPPRLPRPRPRPVPSPRP | -0.0655

Sequence | shrunken log2 fold change
RRIRWRPPRLPRPRPRPCTKPRP | 0.311
RRIRGRPPRLPRPRPRPYDEPRP | 0.0538
RRIRKRPPRLPRPRPRPGHCPRP | 0.00694
RRIRTRPPRLPRPRPRPVCVPRP | 0.182
RRIRRRPPRLPRPRPRPIKYPRP | 0.0338
RRIRNRPPRLPRPRPRPCENPRP | -0.0018
RRIRARPPRLPRPRPRPIQFPRP | 0.166
RRIRNRPPRLPRPRPRPATAPRP | 0.0174
RRIRSRPPRLPRPRPRPNTCPRP | -0.808
RRIRVRPPRLPRPRPRPFEHPRP | -0.00133
RRIRHRPPRLPRPRPRPDQFPRP | -0.441
RRIRHRPPRLPRPRPRPADTPRP | -0.406
RRIRLRPPRLPRPRPRPSREPRP | -0.104
RRIRYRPPRLPRPRPRPLIQPRP | -0.559
RRIRNRPPRLPRPRPRPQSIPRP | -0.0502
RRIRCRPPRLPRPRPRPMAYPRP | -0.00456
RRIRARPPRLPRPRPRPIIAPRP | 0.00311
RRIRARPPRLPRPRPRPVMSPRP | 0.0513
RRIRHRPPRLPRPRPRPPGHPRP | 0.184
RRIRVRPPRLPRPRPRPMWLPRP | 0.0511
RRIRDRPPRLPRPRPRPWSPPRP | 0.127
RRIRKRPPRLPRPRPRPVSIPRP | -0.0178

Sequence | shrunken log2 fold change
RRIRIRPPRLPRPRPRPYAAPRP | -0.563
RRIRWRPPRLPRPRPRPQHEPRP | -0.0328
RRIRRRPPRLPRPRPRPVYMPRP | -0.0789
RRIRHRPPRLPRPRPRPEYWPRP | -0.0523
RRIRVRPPRLPRPRPRPEFAPRP | 0.169
RRIRGRPPRLPRPRPRPPCDPRP | 0.734
RRIRMRPPRLPRPRPRPEVEPRP | -0.0272
RRIRFRPPRLPRPRPRPGFHPRP | -0.416
RRIRCRPPRLPRPRPRPKPFPRP | -0.0386
RRIRCRPPRLPRPRPRPWDSPRP | -0.36
RRIRLRPPRLPRPRPRPEQCPRP | -0.0243
RRIRNRPPRLPRPRPRPDEWPRP | 0.0842
RRIRNRPPRLPRPRPRPPQRPRP | 0.457
RRIRLRPPRLPRPRPRPTQNPRP | 0.404
RRIRQRPPRLPRPRPRPWNLPRP | -0.0507
RRIRARPPRLPRPRPRPQLKPRP | 0.237
RRIRHRPPRLPRPRPRPSDDPRP | -0.0349
RRIRKRPPRLPRPRPRPLSTPRP | 0.025
RRIRYRPPRLPRPRPRPFVGPRP | -0.193
RRIRPRPPRLPRPRPRPNDCPRP | 0.0214
RRIRYRPPRLPRPRPRPCCKPRP | 0.0599
